The sequences below were run on MS2 coat protein (assay: apparent KD of MS2 coat protein; higher = weaker reporter binding). Conditions: Eterna round: R107; input ligand: arginine 13.2 mM.
In short: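 Designed RNA switches were made by on-chip transcription from Illumina sequencing clusters and then titrated with SNAP-549-labelled MS2 coat protein. Twofold steps ran from 0.7 or 1.5 nM to 3 µM, each lasting 0.8–1.5 h early and 10–20 min late, in 100 mM Tris-HCl pH 7.5, 80 mM KCl, 4 mM MgCl2, without or with constant ligand. Apparent KD is the per-design median of normalised cluster binding-curve fits.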

Sequence | apparent KD of MS2 coat protein
GCUGGGUGCGCAAGGACCUGGCGUUGCGAUACCAGCACGGUAACGUGCCCUUGGCAGCGCACAUGAGGAUCACCCAUGUGGUGUG [#1 Exclusion - Theophylline A Attempt #20 (HarryS)] | 96.8 nM
CUGUACAUCUCGGCCGCCACUGCAACAUGUAGAGAUGUAUAUGUACAUGAGGAUCACCCAUGUGGCAGGACCGGGAGGUGUGCAG [SSTryp B #27] | 167 nM
GGCACAUAGUCGGCCGCCACUACGUGGAGAUCGGAGUACAUGAGGAUCACCCAUGUAUGGAAGGGUAGGACCGGGACUAUGUGCC [Horalka] | 38.3 nM
GGACUAACUCGAAGGAGCGACGCGCAGAAACUGCAAUUUCCUCCACACGAGGAUCACCCGUGUCAGGUAGGUCGCGAGUUAGUCG [ArgBX 29] | 14.9 nM
GGUUGGUGUAGAGAUAUAUUGAUUACUGAAGGAGCGGGAAGAAACCCAGGUAGGUCGCAGAGAUCCACAUGAGGAUCACCCAUGU [!0.L] | 26.7 nM
UGUCGCAGGUUAGAUACCAGCGAGGCGCGGGUAAAUGUUCACAUGAGGAUCACCCAUGUUCGCCCUUGGCAGCUAGUAGGCAUAA [theeternabot_exclusion_MS2_Theo_B_36] | 23.9 nM
AUGCAGAGCACGGCCGCCACUCCAUGUAUACAUGAGGAUCACCCAUGUAAUUUGUAUUUUUUAUAGAGGACCGGGUGAAAUGCAA [JR_SSTryptoB_Sub011] | 41.4 nM
AGUCUUAAAGGAAGGAGCGCAGUCAUAACAUGAGGAUCACCCAUGUCGAGGUGAGGGUCAUUGCAGGUAGGUCGCCUUACUAAGA [Same State - Arginine B (Freestyle 6)] | 77.7 nM
UGUAUGGACUGAAGGAGCGGGUUGAUACCAUGAGGAUCACCCAUGGAAAAGGCGAAAGCCGCCCAGGUAGGUCGCAGUCCAUACU | 14 nM
UGGUACAUGAGGAUCACCCAUGUUCCAGAUACCAGAUACCCGGUUAUCCCUUGGCAGCUGGUGGUACAUGAGGAUCACCCAUGUG [Exclusion Theophylline A GF15] | 32.9 nM
GGACUAACCAGAAGGAGCGGCGCGCAGAAACUGCAAAAUCCUCCGCACGAGGAUCACCCGUGUCAGGUAGGUCGCUGGUUAGUCG [ArgBX 28] | 18 nM
CUAUAUAUAAGAAGGAGCGUCGAAAAUGGGUAAACAUGAGGAUCACCCAUGUAAAGGGAACGACAGGUAGGUCGCUUAUAUAUAG [AstromonsSSArgB#5] | 151 nM
GGGUGUGAUCCGGAUACCAGUGAACAUGAGGAUCACCCAUGUGACCUGAGAUCGGCUCUUCACCCUUGGCAGCCGCGGUCGCAGG [Same State Theophylline B GF14] | 11.4 nM
AAUUAUUACGGAAGGAGCGUCUUUCGGCUCAAACAUGAGGAUCACCCAUGUGAUUUUGAAUGACAGGUAGGUCGCCGAUAUUUGA [JR_AAArginiB_Sub030] | 24.4 nM
UGUAUGGACUGAAGGAGCGGGAAAAUAAGAUGAGGAUCACCCAUCUAAAAGGCGAAAGCCACCCAGGUAGGUCGCAGUCCAUACU | 27.7 nM
AUGGCGUUGGUGGAGCGGUGAAAUGGCGAUACCAGCGUGGAAACACGCCCUUGGCAGCGCCAAAACAUGAGGAUCACCCAUGUUA [Usti] | 18.9 nM
ACGUAAAGCAGAAGGAGCGUCUUCAAAUUACAUGAGGAUCACCCAUGUUUUGUGAUCAUAUGACAGGUAGGUCGCUGAAGUACGA [JR_SSArginiB_Sub003] | 58.3 nM

Same assay, conditions: Eterna round: R107; input ligand: none

Sequence | apparent KD of MS2 coat protein
GCUGGGUGCGCAAGGACCUGGCGUUGCGAUACCAGCACGGUAACGUGCCCUUGGCAGCGCACAUGAGGAUCACCCAUGUGGUGUG [#1 Exclusion - Theophylline A Attempt #20 (HarryS)] | 230 nM
CUGUACAUCUCGGCCGCCACUGCAACAUGUAGAGAUGUAUAUGUACAUGAGGAUCACCCAUGUGGCAGGACCGGGAGGUGUGCAG [SSTryp B #27] | 147 nM
GGCACAUAGUCGGCCGCCACUACGUGGAGAUCGGAGUACAUGAGGAUCACCCAUGUAUGGAAGGGUAGGACCGGGACUAUGUGCC [Horalka] | 67.1 nM
GGACUAACUCGAAGGAGCGACGCGCAGAAACUGCAAUUUCCUCCACACGAGGAUCACCCGUGUCAGGUAGGUCGCGAGUUAGUCG [ArgBX 29] | 12.8 nM
GGUUGGUGUAGAGAUAUAUUGAUUACUGAAGGAGCGGGAAGAAACCCAGGUAGGUCGCAGAGAUCCACAUGAGGAUCACCCAUGU [!0.L] | 38.6 nM
AGUCUUAAAGGAAGGAGCGCAGUCAUAACAUGAGGAUCACCCAUGUCGAGGUGAGGGUCAUUGCAGGUAGGUCGCCUUACUAAGA [Same State - Arginine B (Freestyle 6)] | 114 nM
UGUAUGGACUGAAGGAGCGGGUUGAUACCAUGAGGAUCACCCAUGGAAAAGGCGAAAGCCGCCCAGGUAGGUCGCAGUCCAUACU | 12.9 nM
GGACUAACCAGAAGGAGCGGCGCGCAGAAACUGCAAAAUCCUCCGCACGAGGAUCACCCGUGUCAGGUAGGUCGCUGGUUAGUCG [ArgBX 28] | 17.7 nM
CUAUAUAUAAGAAGGAGCGUCGAAAAUGGGUAAACAUGAGGAUCACCCAUGUAAAGGGAACGACAGGUAGGUCGCUUAUAUAUAG [AstromonsSSArgB#5] | 191 nM
GGGUGUGAUCCGGAUACCAGUGAACAUGAGGAUCACCCAUGUGACCUGAGAUCGGCUCUUCACCCUUGGCAGCCGCGGUCGCAGG [Same State Theophylline B GF14] | 11.5 nM
AAUUAUUACGGAAGGAGCGUCUUUCGGCUCAAACAUGAGGAUCACCCAUGUGAUUUUGAAUGACAGGUAGGUCGCCGAUAUUUGA [JR_AAArginiB_Sub030] | 26.4 nM
UGUAUGGACUGAAGGAGCGGGAAAAUAAGAUGAGGAUCACCCAUCUAAAAGGCGAAAGCCACCCAGGUAGGUCGCAGUCCAUACU | 8.99 nM
AUGGCGUUGGUGGAGCGGUGAAAUGGCGAUACCAGCGUGGAAACACGCCCUUGGCAGCGCCAAAACAUGAGGAUCACCCAUGUUA [Usti] | 20.3 nM
ACGUAAAGCAGAAGGAGCGUCUUCAAAUUACAUGAGGAUCACCCAUGUUUUGUGAUCAUAUGACAGGUAGGUCGCUGAAGUACGA [JR_SSArginiB_Sub003] | 71.7 nM

Same assay, conditions: Eterna round: R107; input ligand: theophylline 20 uM

Sequence | apparent KD of MS2 coat protein
GCUGGGUGCGCAAGGACCUGGCGUUGCGAUACCAGCACGGUAACGUGCCCUUGGCAGCGCACAUGAGGAUCACCCAUGUGGUGUG [#1 Exclusion - Theophylline A Attempt #20 (HarryS)] | 333 nM
CUGUACAUCUCGGCCGCCACUGCAACAUGUAGAGAUGUAUAUGUACAUGAGGAUCACCCAUGUGGCAGGACCGGGAGGUGUGCAG [SSTryp B #27] | 128 nM
GGCACAUAGUCGGCCGCCACUACGUGGAGAUCGGAGUACAUGAGGAUCACCCAUGUAUGGAAGGGUAGGACCGGGACUAUGUGCC [Horalka] | 38.5 nM
GGACUAACUCGAAGGAGCGACGCGCAGAAACUGCAAUUUCCUCCACACGAGGAUCACCCGUGUCAGGUAGGUCGCGAGUUAGUCG [ArgBX 29] | 18.6 nM
GGUUGGUGUAGAGAUAUAUUGAUUACUGAAGGAGCGGGAAGAAACCCAGGUAGGUCGCAGAGAUCCACAUGAGGAUCACCCAUGU [!0.L] | 49.5 nM
UGUCGCAGGUUAGAUACCAGCGAGGCGCGGGUAAAUGUUCACAUGAGGAUCACCCAUGUUCGCCCUUGGCAGCUAGUAGGCAUAA [theeternabot_exclusion_MS2_Theo_B_36] | 34 nM
AUGCAGAGCACGGCCGCCACUCCAUGUAUACAUGAGGAUCACCCAUGUAAUUUGUAUUUUUUAUAGAGGACCGGGUGAAAUGCAA [JR_SSTryptoB_Sub011] | 34.1 nM
AGUCUUAAAGGAAGGAGCGCAGUCAUAACAUGAGGAUCACCCAUGUCGAGGUGAGGGUCAUUGCAGGUAGGUCGCCUUACUAAGA [Same State - Arginine B (Freestyle 6)] | 118 nM

Source: the supplement of paper PMC9170038
